# B1: Fluoride channel from B. pertussis (Fluc homolog Bpe) (natural protein)
# chain: MLTYAPLNFIAIGIGATLGAWLRWVLGLRLNGAGWPWGTLTANLVGGYLIGVMVALIASHPEWPAWIRLAAVTGFLGGLTTFSTFSAETVDMLERGVYATAAAYAGASLAGSLAMTGLGLATVRLLLR
# notes: Fluc family fluoride ion channel homolog Bpe from B. pertussis; homodimer of two antiparallel subunits (subunits A and B in PDB 6BQO); pET21c with Bpe gene, C-terminal hexahistidine tag; Construct as in Stockbridge et al., 2013; also called Fluc channel; Fluc homologue "Bpe"; source: E. coli, purified (as described in Stockbridge et al., 2013); reconstituted into liposomes for …
# Target: the molecule itself
# Assay: crystal structure; in meso crystals of the Bpe-S8 complex; 26% PEG 550MME, 0.1 M sodium citrate, pH 5.0; 2.8 A
protein,measurement,value
B1,stoichiometry N,2
